Assay results reported in article PMC10798138 (Journal of inorganic biochemistry, 2023).

T1: bovine Adrenodoxin reductase (bovine, UniProt P08165 33-492)
T1 sequence: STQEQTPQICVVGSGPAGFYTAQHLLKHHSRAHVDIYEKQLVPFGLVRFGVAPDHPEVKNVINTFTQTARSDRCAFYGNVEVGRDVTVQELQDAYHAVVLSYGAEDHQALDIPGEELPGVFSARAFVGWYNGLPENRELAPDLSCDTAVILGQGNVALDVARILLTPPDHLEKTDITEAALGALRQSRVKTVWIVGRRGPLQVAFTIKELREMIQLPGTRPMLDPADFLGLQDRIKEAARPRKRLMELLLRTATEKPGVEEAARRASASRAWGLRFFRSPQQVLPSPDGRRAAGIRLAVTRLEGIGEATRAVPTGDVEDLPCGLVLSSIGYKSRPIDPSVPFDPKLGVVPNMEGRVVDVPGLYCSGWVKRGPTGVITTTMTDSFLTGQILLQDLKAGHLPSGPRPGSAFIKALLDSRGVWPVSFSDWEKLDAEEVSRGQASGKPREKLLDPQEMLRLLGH


Tests used:
SEC = target: the molecule itself; experiment: SEC
[1] = target: T1, bovine Adrenodoxin reductase; experiment: NMR titration

binding result [1] | Binder | binding result (SEC)
 | full-length human Adrenodoxin with the L80V mutation (natural protein, UniProt P10109 62-184, looked up) SSEDKITVHFINRDGETLTTKGKVGDSLLDVVVENNLDIDGFGACEGTLACSTCHLIFEDHIYEKLDAITDEENDMLDVAYGLTDRSRLGCQICLTKSMDNMTVRVPETVADARQSIDVGKTS | binds
binds | full-length human Adrenodoxin (Ferredoxin 1), hAdx (2–124) (natural protein, UniProt P10109 62-184, looked up) SSEDKITVHFINRDGETLTTKGKVGDSLLDVVVENNLDIDGFGACEGTLACSTCHLIFEDHIYEKLDAITDEENDMLDLAYGLTDRSRLGCQICLTKSMDNMTVRVPETVADARQSIDVGKTS | 
